Among the data in patent publication US20230068663A1 are MFI values, retold here.

Targets include LILRB4; LILRB5; LILRA5; LILRB3; LILRA6; LILRA3; LILRB1; LAIR1 on reporter cells (UniProt Q6GTX8); LILRA4; LILRA2.
Assay in all cases: flow cytometry, reporter cells, secondary antibody alone (blank)
Assay [1] addresses LILRB2 chimeric receptor on LILRB2 reporter cells (extracellular domain of LILRB2 fused with transmembrane/intracellular domains of PILRb) (UniProt Q8N423).
Assay [2] concerns the target LILRA1 on reporter cells (extracellular domain) (UniProt O75019).

LILRA6, sequence (chain, as listed by the source limits assumed): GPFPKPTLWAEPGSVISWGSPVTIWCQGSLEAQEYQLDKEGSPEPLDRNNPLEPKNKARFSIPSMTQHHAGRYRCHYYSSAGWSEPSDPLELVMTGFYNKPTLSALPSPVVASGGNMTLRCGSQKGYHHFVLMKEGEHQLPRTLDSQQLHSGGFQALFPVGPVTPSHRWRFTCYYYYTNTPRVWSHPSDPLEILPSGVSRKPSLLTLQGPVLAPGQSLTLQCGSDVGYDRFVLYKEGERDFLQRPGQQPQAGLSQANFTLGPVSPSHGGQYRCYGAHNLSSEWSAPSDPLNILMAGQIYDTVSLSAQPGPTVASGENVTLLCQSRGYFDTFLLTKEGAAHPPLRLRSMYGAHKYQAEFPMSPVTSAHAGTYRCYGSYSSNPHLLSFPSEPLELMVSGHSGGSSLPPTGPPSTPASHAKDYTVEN
LILRA2, sequence (chain, as listed by the source limits assumed): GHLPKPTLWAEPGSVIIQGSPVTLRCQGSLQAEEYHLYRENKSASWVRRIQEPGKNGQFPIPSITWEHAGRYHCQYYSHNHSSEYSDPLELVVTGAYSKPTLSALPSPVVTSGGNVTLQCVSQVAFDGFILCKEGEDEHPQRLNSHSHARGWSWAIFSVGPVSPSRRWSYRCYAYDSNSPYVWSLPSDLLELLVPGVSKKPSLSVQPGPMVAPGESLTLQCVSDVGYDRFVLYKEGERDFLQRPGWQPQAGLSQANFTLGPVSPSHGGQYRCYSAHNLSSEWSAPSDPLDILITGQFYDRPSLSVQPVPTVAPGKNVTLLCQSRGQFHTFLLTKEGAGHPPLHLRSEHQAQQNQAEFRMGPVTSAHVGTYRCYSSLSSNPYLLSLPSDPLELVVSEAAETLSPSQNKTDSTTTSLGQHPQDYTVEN
LILRA5, sequence (chain, as listed by the source limits assumed): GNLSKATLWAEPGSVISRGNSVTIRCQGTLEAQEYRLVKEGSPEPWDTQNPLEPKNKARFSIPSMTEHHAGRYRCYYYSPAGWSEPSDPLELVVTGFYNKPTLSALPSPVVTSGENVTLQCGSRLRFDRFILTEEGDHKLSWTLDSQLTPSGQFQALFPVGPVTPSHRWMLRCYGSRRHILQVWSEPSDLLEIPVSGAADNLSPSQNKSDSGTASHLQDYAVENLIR
LILRA3, sequence (chain, as listed by the source limits assumed): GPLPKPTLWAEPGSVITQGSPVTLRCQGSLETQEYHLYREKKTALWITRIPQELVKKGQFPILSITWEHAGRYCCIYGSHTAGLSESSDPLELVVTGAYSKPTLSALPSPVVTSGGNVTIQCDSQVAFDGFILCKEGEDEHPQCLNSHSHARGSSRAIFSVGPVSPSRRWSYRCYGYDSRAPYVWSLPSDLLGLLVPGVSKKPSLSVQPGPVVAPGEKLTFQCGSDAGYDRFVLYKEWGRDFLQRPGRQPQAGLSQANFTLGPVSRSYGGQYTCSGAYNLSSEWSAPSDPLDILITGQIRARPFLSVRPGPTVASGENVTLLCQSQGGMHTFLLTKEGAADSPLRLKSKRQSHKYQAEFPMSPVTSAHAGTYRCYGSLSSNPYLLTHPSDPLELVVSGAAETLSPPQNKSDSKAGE
LILRB1, sequence (chain, as listed by the source limits assumed): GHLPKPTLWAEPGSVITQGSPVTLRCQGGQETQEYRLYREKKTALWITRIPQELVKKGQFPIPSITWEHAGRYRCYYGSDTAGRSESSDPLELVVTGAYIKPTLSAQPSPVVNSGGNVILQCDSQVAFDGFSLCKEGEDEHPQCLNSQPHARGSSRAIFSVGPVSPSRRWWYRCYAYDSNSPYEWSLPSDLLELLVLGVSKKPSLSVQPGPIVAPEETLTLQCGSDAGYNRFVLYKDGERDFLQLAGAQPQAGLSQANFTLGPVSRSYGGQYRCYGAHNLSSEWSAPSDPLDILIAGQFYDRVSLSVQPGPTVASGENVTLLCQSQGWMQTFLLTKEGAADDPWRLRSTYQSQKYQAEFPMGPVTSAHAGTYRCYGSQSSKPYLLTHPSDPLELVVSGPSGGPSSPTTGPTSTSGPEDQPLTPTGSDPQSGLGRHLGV
LAIR1 on reporter cells, sequence (Q6GTX8 22-165 limits assumed): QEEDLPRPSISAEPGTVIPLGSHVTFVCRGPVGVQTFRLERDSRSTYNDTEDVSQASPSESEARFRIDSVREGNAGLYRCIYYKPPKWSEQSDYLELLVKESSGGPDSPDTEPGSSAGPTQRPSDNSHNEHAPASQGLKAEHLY
LILRB5, sequence (chain, as listed by the source limits assumed): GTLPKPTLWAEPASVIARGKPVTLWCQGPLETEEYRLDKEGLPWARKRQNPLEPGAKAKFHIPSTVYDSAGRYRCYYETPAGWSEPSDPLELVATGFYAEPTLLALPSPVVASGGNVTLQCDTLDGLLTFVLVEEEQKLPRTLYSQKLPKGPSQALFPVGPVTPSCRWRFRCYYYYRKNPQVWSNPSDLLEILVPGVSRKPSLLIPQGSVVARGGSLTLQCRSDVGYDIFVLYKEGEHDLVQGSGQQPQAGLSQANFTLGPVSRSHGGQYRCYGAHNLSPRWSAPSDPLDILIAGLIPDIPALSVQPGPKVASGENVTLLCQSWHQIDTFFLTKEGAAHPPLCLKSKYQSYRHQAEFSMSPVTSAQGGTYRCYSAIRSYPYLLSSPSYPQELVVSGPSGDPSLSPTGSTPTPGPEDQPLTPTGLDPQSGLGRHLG
LILRA1 on reporter cells (extracellular domain), sequence (O75019 17-461 limits assumed): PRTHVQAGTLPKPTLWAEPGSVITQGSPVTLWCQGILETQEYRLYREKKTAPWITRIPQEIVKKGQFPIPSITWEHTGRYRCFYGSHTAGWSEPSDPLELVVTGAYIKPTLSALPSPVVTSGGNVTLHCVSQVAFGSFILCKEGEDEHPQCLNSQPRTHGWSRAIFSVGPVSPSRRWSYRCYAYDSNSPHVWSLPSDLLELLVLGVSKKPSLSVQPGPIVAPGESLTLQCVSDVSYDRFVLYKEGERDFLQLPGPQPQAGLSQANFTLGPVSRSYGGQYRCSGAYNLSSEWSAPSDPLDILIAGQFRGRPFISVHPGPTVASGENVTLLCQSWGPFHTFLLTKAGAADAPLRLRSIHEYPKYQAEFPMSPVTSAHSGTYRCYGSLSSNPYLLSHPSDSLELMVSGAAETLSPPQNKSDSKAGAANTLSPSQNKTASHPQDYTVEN
LILRA4, sequence (chain, as listed by the source limits assumed): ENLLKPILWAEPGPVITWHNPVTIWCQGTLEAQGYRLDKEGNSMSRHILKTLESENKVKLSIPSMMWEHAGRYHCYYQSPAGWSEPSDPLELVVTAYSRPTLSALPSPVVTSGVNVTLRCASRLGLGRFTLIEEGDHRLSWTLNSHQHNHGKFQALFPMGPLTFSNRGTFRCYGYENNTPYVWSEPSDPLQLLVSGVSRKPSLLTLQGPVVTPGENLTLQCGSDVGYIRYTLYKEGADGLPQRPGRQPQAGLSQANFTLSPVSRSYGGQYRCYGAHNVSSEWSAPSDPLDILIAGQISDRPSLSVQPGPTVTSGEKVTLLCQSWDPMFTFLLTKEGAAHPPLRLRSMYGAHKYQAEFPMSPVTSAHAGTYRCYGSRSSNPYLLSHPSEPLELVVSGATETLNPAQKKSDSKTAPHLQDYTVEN

Take 2nd Ab (antibody): the MFI came out at 13 in the assay with LILRB4; 11 in the assay with LILRB5; 11 with LILRA5; 9 with LILRB3; 10 with LILRA6; 10 in assay [1]. Moreover, the MFI with LILRA3 came to 10; in [2] it was 10; with LILRB1, 9; with LAIR1 on reporter cells, 23; with LILRA4 it was 10; with LILRA2 it was 9.
